Experimental data from PMC6321125, “Characterization of a Carbonyl Reductase from Rhodococcus erythropolis WZ010 and Its Variant Y54F for Asymmetric Synthesis of (S)-N-Boc-3-Hydroxypiperidine” (Molecules, 2018).
Numbering of substitutions follows the chain as printed. In names and notes the source's numbering stands.

B1: ReCR (Rhodococcus erythropolis; G336R/K233S/K67R/N94S/Q110S) (protein)
chain: MKAIQYTRIGAEPELTEIPKPEPGPGEVLLEVTAAGVCHSDDFIMSLPEEQYTYGLPLTLGHEGAGRVAAVGEGVEGLDIGTNVVVYGPWGCGSCWHCSQGLENYCSRASELGINPPGLGAPGALAEFMIVDSPRHLVPIGDLDPVKTVPLTDAGLTPYHAIKRSLPKLRGGSYAVVIGTGGLGHVAIQLLRHLSAATVIALDVSADKLELATKVGAHEVVLSDKDAAENVRSITGSQGAALVLDFVGYQPTIDTAMAVAGVGSDVTIVGIGDGQAHAKVGFFQSPYEASVTVPYWGARNELIELIDLAHAGIFDIAVETFSLDNGAEAYRRLAARTLSGRAVVVPGL
B2: ReCR (Rhodococcus erythropolis; G336R/K233S/K67R/N94S/Q110S/Y54F) (protein)
chain: B1 chain with Y54F

Tests used:
Assay in all cases: purified protein
purified protein [1] = substrate: CCCCCCC(C)=O; assay type: biochemical, Rhodococcus erythropolis; conditions: apparent, 0.4 mM NADH, standard assay 50 mM PIPES pH 6.0, 60 °C
purified protein [2] = substrate: CC(C)(C)OC(=O)N1CCCC(=O)C1; assay type: biochemical, Rhodococcus erythropolis; conditions: apparent, 0.4 mM NADH, standard assay 50 mM PIPES pH 6.0, 60 °C
purified protein [3] = substrate: CCCCCCC(C)O; assay type: biochemical, Rhodococcus erythropolis; conditions: apparent, 0.4 mM NAD+, standard assay 50 mM CAPSO pH 10.0, 50 °C
purified protein [4] = substrate: CC(C)=O; assay type: biochemical, Rhodococcus erythropolis; conditions: apparent, 0.4 mM NADH, standard assay 50 mM PIPES pH 6.0, 60 °C
purified protein [5] = substrate: CC(C)O; conditions: apparent, 0.4 mM NAD+, standard assay 50 mM CAPSO pH 10.0, 50 °C

Protein | Km (purified protein [1]) [µM] | Vmax (purified protein [1]) [µmol/min/mg] | kcat (purified protein [1]) [s⁻¹] | kcat/Km (purified protein [1]) [M⁻¹ s⁻¹] | Km (purified protein [2]) [µM] | Vmax (purified protein [2]) [µmol/min/mg] | kcat (purified protein [2]) [s⁻¹] | kcat/Km (purified protein [2]) [M⁻¹ s⁻¹] | Km (purified protein [3]) [µM] | Vmax (purified protein [3]) [µmol/min/mg] | kcat (purified protein [3]) [s⁻¹] | kcat/Km (purified protein [3]) [M⁻¹ s⁻¹] | Km (purified protein [4]) [µM] | Vmax (purified protein [4]) [µmol/min/mg] | kcat (purified protein [4]) [s⁻¹] | kcat/Km (purified protein [4]) [M⁻¹ s⁻¹] | Km (purified protein [5]) [µM] | Vmax (purified protein [5]) [µmol/min/mg] | kcat (purified protein [5]) [s⁻¹] | kcat/Km (purified protein [5]) [M⁻¹ s⁻¹]
B1 | 3290 ± 50 | 236 | 142 ± 3.11 | 43300 ± 950 | 1740 ± 80 | 104 | 62.6 ± 1.49 | 36000 ± 860 | 4940 ± 450 | 107 | 64.4 ± 1.66 | 13000 ± 340 | 46060 ± 2620 | 66.3 | 40.1 ± 1.98 | 870 ± 40 | 1460 ± 60 | 23.5 | 14.2 | 9740
B2 | 3110 ± 120 | 274 | 165 ± 4.58 | 53200 ± 1470 | 1730 ± 50 | 141 | 85.1 ± 3.94 | 49200 ± 2280 | 1370 ± 80 | 128 | 77.5 ± 1.88 | 56600 ± 1370 | 37320 ± 560 | 90.5 | 54.7 ± 1.02 | 1470 ± 30 | 1030 ± 50 | 35.3 | 21.3 | 20700
